We go through three molecules from patent US20220213176A1 (SHANGHAITECH UNIVERSITY, published 2022).

In one experiment the target is T1, HCoV-229E spike (HCoV-229E, UniProt P15423 16-1173).
T1 construct: whole, on cells
T1 sequence: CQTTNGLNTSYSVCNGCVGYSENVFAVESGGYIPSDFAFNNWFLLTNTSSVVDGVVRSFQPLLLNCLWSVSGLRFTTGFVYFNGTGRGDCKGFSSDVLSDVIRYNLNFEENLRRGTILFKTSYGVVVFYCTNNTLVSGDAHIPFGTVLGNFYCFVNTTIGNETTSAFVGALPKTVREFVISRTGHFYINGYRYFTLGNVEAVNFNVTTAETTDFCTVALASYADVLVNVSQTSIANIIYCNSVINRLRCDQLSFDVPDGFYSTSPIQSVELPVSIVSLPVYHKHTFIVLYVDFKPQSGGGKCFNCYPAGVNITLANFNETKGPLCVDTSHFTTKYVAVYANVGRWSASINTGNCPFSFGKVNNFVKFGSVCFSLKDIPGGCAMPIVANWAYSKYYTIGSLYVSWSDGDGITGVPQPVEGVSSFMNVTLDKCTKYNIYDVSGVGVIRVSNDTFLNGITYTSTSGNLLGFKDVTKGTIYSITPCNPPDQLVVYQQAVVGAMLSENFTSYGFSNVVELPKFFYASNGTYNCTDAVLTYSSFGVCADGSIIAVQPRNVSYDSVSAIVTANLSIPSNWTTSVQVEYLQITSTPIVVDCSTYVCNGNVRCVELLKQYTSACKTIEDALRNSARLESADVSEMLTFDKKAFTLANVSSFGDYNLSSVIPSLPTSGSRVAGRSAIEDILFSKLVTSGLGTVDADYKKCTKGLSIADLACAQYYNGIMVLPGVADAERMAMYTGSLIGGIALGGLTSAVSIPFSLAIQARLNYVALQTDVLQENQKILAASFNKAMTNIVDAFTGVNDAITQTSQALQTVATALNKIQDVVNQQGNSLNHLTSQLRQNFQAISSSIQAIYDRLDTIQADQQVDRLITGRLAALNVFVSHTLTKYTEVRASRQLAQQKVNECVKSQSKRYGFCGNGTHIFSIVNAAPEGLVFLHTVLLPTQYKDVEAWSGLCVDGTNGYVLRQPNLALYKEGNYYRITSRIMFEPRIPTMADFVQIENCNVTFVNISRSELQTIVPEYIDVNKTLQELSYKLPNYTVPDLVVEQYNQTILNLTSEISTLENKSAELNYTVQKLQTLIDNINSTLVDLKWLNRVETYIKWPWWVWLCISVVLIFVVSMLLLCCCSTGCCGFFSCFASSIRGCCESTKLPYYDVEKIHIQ
Briefly: FACS, transfected HEK293T cells, IgG4 antibody.

The target in a further experiment is T2, HCoV-OC43 spike (HCoV-OC43, UniProt P36334 14-1353).
T2 construct: whole, on cells; also called HCoV-0C43 spike
T2 sequence: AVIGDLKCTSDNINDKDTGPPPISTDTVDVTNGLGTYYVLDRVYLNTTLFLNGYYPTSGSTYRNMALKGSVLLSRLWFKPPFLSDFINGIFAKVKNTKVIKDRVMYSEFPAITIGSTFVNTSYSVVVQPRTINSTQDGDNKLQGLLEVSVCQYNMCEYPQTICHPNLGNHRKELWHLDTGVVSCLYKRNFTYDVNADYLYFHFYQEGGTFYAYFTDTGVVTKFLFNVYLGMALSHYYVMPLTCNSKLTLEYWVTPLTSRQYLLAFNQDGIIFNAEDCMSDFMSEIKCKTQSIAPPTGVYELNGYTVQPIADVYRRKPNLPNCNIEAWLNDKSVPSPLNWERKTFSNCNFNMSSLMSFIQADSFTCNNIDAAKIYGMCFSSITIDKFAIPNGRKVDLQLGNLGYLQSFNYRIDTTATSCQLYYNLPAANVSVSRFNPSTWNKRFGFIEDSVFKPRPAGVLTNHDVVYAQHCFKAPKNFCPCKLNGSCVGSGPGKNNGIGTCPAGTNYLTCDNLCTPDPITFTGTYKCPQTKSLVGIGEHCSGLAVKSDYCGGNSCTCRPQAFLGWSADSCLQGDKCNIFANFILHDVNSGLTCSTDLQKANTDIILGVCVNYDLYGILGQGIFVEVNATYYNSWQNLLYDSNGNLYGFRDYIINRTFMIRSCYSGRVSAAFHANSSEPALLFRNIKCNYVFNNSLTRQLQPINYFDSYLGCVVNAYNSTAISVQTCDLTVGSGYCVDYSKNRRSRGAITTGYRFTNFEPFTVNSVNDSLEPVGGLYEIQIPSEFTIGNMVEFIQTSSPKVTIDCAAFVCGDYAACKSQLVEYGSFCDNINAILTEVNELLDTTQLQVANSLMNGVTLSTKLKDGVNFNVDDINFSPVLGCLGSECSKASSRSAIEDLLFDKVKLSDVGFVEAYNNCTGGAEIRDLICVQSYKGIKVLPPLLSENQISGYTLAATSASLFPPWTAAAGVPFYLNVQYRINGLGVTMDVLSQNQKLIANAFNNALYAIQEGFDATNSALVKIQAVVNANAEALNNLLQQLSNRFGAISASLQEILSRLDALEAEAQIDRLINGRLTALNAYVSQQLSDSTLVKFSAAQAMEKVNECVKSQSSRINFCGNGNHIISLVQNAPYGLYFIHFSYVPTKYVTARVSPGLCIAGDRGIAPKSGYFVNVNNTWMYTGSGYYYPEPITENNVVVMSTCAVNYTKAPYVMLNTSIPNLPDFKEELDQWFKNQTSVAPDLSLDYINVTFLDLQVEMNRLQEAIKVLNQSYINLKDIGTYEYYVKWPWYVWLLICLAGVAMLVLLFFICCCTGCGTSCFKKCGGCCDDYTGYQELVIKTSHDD
Briefly: FACS, transfected HEK293T cells, IgG4 antibody. (In general: Flow cytometry measures light scatter and fluorescence of single cells or particles in a stream.)

B1: S-E6 (antibody, V domains shown)
VH: QVTLRESGPGLVKPSETLSLTCAVSGGSLSSVNYYWSWIRQHPGKGLEWIGYIYYSGSTNYNPSLKSRVTMSLDTSKNQFSLKLSSVTAADTAVYYCATPGAIMGALHIWGQGTLVTVSS
VL: QAVLTQPSSASSTPGQRVIISCSGSSSNIGSNTVSWYQQVPGAAPKLLIYFDYRRPSGVPDRFSGTRSGTSASLGISGLQSEDEADYYCAAWDDSLSAWVFGRGTKLTVLG
notes: also called S-E6 dimer; dimer S-E6
With B1, the binding result with HCoV-229E spike and with HCoV-OC43 spike was “no binding” throughout.

B2: S-D4 (antibody, V domains shown)
VH: QVQLQESGGGVVQPGRSLRLSCEVSGFTFSDYGMHWVRQAPGKGLEWVAVIWSEGSTEYYADSVKGRFTISRDNSKDTLYLQMNSLRAEDTAVYYCARPGYPTSTDRSPAAAGARQYYYYGMDVWGQGTTVTVSS
VL: NFMLTQPHSVSESPGKTVTISCTRSGGSGAANYVQWYQQRPGSSPTTLIYEDSRRPPGVPDRFSGSVDTSSNSASLTISGLQTEDEADYYCQSYDSSNHVVFGGGTKLTVLG
notes: also called S-D4 dimer; S-D4 IgG4
For the molecule B2, the binding result with HCoV-229E spike and in the experiment with HCoV-OC43 spike was “no binding” each time.

B3: S-B8 (antibody, V domains shown)
VH: QVQLVQSGGGLIQPGGSLRLSCAASGFTVSLSHMNWVRQAPGKGLEWVSITYGDGNSDYADSVKGRFTISRDNSKNTLYLQMNSLRAEDTAVYYCAREYYYGMDVWGQGTTVTVSS
VL: not shown
notes: also called S-B8 dimer
B3: the binding result with HCoV-229E spike and in the experiment with HCoV-OC43 spike was “no binding” throughout.
